Measurements as given in the Human Domainome abundance scans (Beltran et al. 2025).
± gives the uncertainty stated by the source.

B1: Homeobox protein cut-like 1, residues 548 to 629; numbered along this chain, P39880 (parent)
chain: GEEMDTAEIARQVKEQLIKHNIGQRIFGHYVLGLSQGSVSEILARPKPWNKLTVRGKEPFHKMKQFLSDEQNILALRSIQGR

Variants of: B1
Assay: abundance fitness (aPCA) (normalised: wild type 0, dead -1); higher = more abundant; growth selection in yeast, the domain comes from the species named
Conditions: Homo sapiens

GEEMDTAEIARQVKEQLIKHNIGQRIFGHYVLGLSQGSVSEILARPKPWNKLTVRGKEPFHKMKQFLSDEQNILALRSFQGR [I79F] and GEEMDTAEIARQVKEQLIKHNIGQRIFGHYVLGLSQGSVSEILARPKPWNKLTVRGKEPFHKMKQFLSDEQNILALRSAQGR [I79A] are within error of each other in abundance fitness: -0.086 ± 0.056 for the first, -0.047 ± 0.03 for the second.

Going from GEEMDTAEIARQVKEQLIKHNIGQRIFGHYVLGLSQGSVSEILARPQPWNKLTVRGKEPFHKMKQFLSDEQNILALRSIQGR [K47Q] to GEEMDTAEIARQVKEQLIKHNIGQRIFGHYVLGLSQGSVSEILARPKPWNKLTVRGKEPFHKMKQFLSDEPNILALRSIQGR [Q71P], the abundance fitness falls from 0.03 ± 0.035 to -0.673 ± 0.085.

GEEMDTAEIARQVKEQLIKHNIGQRIFGHYVLGLSQGSVSEILARDKPWNKLTVRGKEPFHKMKQFLSDEQNILALRSIQGR [P46D] and GEEMDTAEIARQVKEQLIKHNIGQRIFGHYVLPLSQGSVSEILARPKPWNKLTVRGKEPFHKMKQFLSDEQNILALRSIQGR [G33P] are within error of each other in abundance fitness: -0.854 ± 0.095 for the first, -0.882 ± 0.086 for the second.

GEEMDTAEIARQVKEQLIKHNIGQRIFGHYVLHLSQGSVSEILARPKPWNKLTVRGKEPFHKMKQFLSDEQNILALRSIQGR [G33H] and GEEMDTAEIARQVKEQLIKHNIGQRIFGHYVLNLSQGSVSEILARPKPWNKLTVRGKEPFHKMKQFLSDEQNILALRSIQGR [G33N] are within error of each other in abundance fitness: -0.111 ± 0.059 for the first, -0.106 ± 0.068 for the second.

Compared with GEEMDTAEIARQVKEQLIKHNIGQRIFGHYVLGLSQGSVSEILARPKPWNKLTVRGKEPFHKMKQFLSDEQNILALRSIAGR [Q80A], GEEMDTAEIARQVKEQLIKHNIGQRWFGHYVLGLSQGSVSEILARPKPWNKLTVRGKEPFHKMKQFLSDEQNILALRSIQGR [I26W] is lower in abundance fitness: 0.034 ± 0.032 for the first, -0.083 ± 0.028 for the second.

First: GEEMDTAEIARQVKEQLIKHNIGQRIFGHYVLGLSQGSVSEILARPKPWNKLTVRGKEPFHKMKQFVSDEQNILALRSIQGR [L67V]
Second: GEEMDTAEIARQVKEQLIKHNIGQRIFGHYVLGLSQGSVSEILARPKPWNKLTVRGKEPFHKMKQFQSDEQNILALRSIQGR [L67Q]
The abundance fitness of the first is higher: -0.243 ± 0.034 for the first, -0.978 ± 0.11 for the second.

Going from GEEMDTAEIARQVKEQLIKHNIGQRIFGHYVLGLSQGSVSEILARPKPWNKLTVRGKEPFCKMKQFLSDEQNILALRSIQGR [H61C] to GEEMDTAEIARQVKEQLIKHNIGQRIFGHYVLGLSQGSYSEILARPKPWNKLTVRGKEPFHKMKQFLSDEQNILALRSIQGR [V39Y], the abundance fitness falls from -0.134 ± 0.047 to -0.574 ± 0.11.

First: GEEMDTAEIPRQVKEQLIKHNIGQRIFGHYVLGLSQGSVSEILARPKPWNKLTVRGKEPFHKMKQFLSDEQNILALRSIQGR [A10P]
Second: GEEMDTAEIARQVKEQLIKHNIGQRIFGHYVLGLSQGSVSEILARPKPWNKLTVRGKEPFHKMKQFLSDEQNILMLRSIQGR [A75M]
The abundance fitness of the first is lower: -0.744 ± 0.071 for the first, -0.039 ± 0.037 for the second.

Compared with GEEMDTAEIARQVKEQLQKHNIGQRIFGHYVLGLSQGSVSEILARPKPWNKLTVRGKEPFHKMKQFLSDEQNILALRSIQGR [I18Q], GEEMDTAEIARQVKEQLIKHNIGQRIFGHYVLGLSQGSVSEIKARPKPWNKLTVRGKEPFHKMKQFLSDEQNILALRSIQGR [L43K] is lower in abundance fitness: 0.084 ± 0.032 for the first, -1.03 ± 0.078 for the second.

GEEMDTAEIARQVKEQLIKHNIGQRIFGHYVLGLSQGSVSEIFARPKPWNKLTVRGKEPFHKMKQFLSDEQNILALRSIQGR [L43F] and GEEMDTSEIARQVKEQLIKHNIGQRIFGHYVLGLSQGSVSEILARPKPWNKLTVRGKEPFHKMKQFLSDEQNILALRSIQGR [A7S] are within error of each other in abundance fitness: -0.146 ± 0.07 for the first, -0.09 ± 0.032 for the second.

Going from GEEMDTREIARQVKEQLIKHNIGQRIFGHYVLGLSQGSVSEILARPKPWNKLTVRGKEPFHKMKQFLSDEQNILALRSIQGR [A7R] to GEEMDTAEIARQVKEQLIKHNIGQRIFGHYVLGLSKGSVSEILARPKPWNKLTVRGKEPFHKMKQFLSDEQNILALRSIQGR [Q36K], the abundance fitness rises from -0.093 ± 0.024 to 0.025 ± 0.037.

GEGMDTAEIARQVKEQLIKHNIGQRIFGHYVLGLSQGSVSEILARPKPWNKLTVRGKEPFHKMKQFLSDEQNILALRSIQGR [E3G] and GEPMDTAEIARQVKEQLIKHNIGQRIFGHYVLGLSQGSVSEILARPKPWNKLTVRGKEPFHKMKQFLSDEQNILALRSIQGR [E3P] are within error of each other in abundance fitness: -0.155 ± 0.023 for the first, -0.137 ± 0.045 for the second.

Compared with GEEMDTAEIARQVKEQLIKHNIGQRIFGHYVLGLSQGSVSEILARPKPWNKLTVRGKEPFHKMKQFLSDHQNILALRSIQGR [E70H], GEEMDTAEIARQVKEQLIKHNIGQRIFGHYVLGLSQGSVSEILARPKPWNKLTVRGKEPFHKMKQFLSDGQNILALRSIQGR [E70G] is lower in abundance fitness: 0.001 ± 0.057 for the first, -0.126 ± 0.025 for the second.

Going from GEEMDTAEIARQAKEQLIKHNIGQRIFGHYVLGLSQGSVSEILARPKPWNKLTVRGKEPFHKMKQFLSDEQNILALRSIQGR [V13A] to GEEMDTAEIARQVKEQLIKHNIGQRIFGHYVLGLSQGSVSEILARPKPWNKLTVRGKEPFHKMKQFLSDEQQILALRSIQGR [N72Q], the abundance fitness rises from -0.415 ± 0.041 to 0.03 ± 0.041.

Going from GEEMDTAEIARQVKEQLIKHNITQRIFGHYVLGLSQGSVSEILARPKPWNKLTVRGKEPFHKMKQFLSDEQNILALRSIQGR [G23T] to GEEMDTAEIARQVKEQLIKHNIDQRIFGHYVLGLSQGSVSEILARPKPWNKLTVRGKEPFHKMKQFLSDEQNILALRSIQGR [G23D], the abundance fitness rises from -0.013 ± 0.033 to 0.114 ± 0.043.

Going from GEEMDTAEIARQVKEQLIKHNIGQRIFGHYVLGLSQGSVSEILARPKPWNKLTVRGKEPFHKMKQFLSDEQNILALRSIQGW [R82W] to GEEMDTAEIARQVKEQLIKHNIGQRIFGHDVLGLSQGSVSEILARPKPWNKLTVRGKEPFHKMKQFLSDEQNILALRSIQGR [Y30D], the abundance fitness falls from -0.149 ± 0.049 to -0.337 ± 0.055.

With GEEMRTAEIARQVKEQLIKHNIGQRIFGHYVLGLSQGSVSEILARPKPWNKLTVRGKEPFHKMKQFLSDEQNILALRSIQGR [D5R] the abundance fitness was -0.541 ± 0.028.
